Laboratory results as given in patent US20070099830A1 (MIT, published 2007).

Target: T1, glutamate dehydrogenase (endogenous, 293T cells) (human, UniProt P00367 54-558, ADP-ribosylated (32P-labelled) in the mitochondrial labelling experiments; site not stated)
T1 construct: Endogenous protein in 293T lysate or mitochondria; also called GDH
Test: anti-FLAG immunoprecipitation from 32P-NAD labelled mitochondria of 293T cells overexpressing Sirt4-FLAG, autoradiography
Procedure: FIG. 5. Glutamate dehydrogenase is ADP-ribosylated in vivo and interacts with Sirt4. FIG. 5A. Mitochondria (50 mg) from 293T cells were incubated with [³²P]-NAD at 37° C. for 30 min. Proteins were separated by SDS-PAGE, transferred to a nitrocellulose membrane, and radioactivity was measured by exposure to film. FIG. 5B. Mitochondrial proteins were ADP-ribosylated as described for FIG. 5A, and lysis was performed in NP-40 buffer containing 10 mM DTT and 0.5 mM EDTA. Clarified lysate was incubated with protein A resin that had been pre-incubated with antibodies against hSirt4, ANT or glutamate dehydrogenase (GDH). FIG. 5C. 293T cells were transiently transfected with 10 μg of pCMV (V) or phSirt4-FLAG (4). Cells were harvested and lysed in NP-40 buffer containing protease inhibitors and 1 mM DTT. […] An endogenous interaction between Sirt4 and glutamate dehydrogenase was determined in MIN6 cells. […] Proteins were separated by SDS-PAGE, transferred to nitrocellulose membrane, and the radioactivity was measured by exposure to x-ray film.
Mitochondria from 293T control or Sirt4-FLAG overexpressing cells were incubated with [³²P]-NAD, and the ADP-ribosylation state of glutamate dehydrogenase was measured by immunoprecipitation and subsequent autoradiography. […] Moreover, a small amount of labeled glutamate dehydrogenase could be detected in a complex with Sirt4 (FIG. 5E).

T1 sequence (P00367 54-558): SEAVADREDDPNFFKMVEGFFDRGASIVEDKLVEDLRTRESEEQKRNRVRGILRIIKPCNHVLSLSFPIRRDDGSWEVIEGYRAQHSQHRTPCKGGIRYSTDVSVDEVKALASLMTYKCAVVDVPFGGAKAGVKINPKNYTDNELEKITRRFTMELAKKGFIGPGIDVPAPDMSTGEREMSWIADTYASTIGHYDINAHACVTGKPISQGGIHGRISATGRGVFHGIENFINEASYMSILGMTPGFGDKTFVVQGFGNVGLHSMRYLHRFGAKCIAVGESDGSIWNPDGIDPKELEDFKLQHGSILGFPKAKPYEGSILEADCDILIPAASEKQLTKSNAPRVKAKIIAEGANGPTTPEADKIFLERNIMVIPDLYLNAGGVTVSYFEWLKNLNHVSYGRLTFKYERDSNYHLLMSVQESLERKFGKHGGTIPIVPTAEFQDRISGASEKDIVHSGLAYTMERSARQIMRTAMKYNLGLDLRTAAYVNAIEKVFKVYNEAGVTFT

B1: human Sirt4 with a C-terminal FLAG (enzyme)
chain: IGLFVPASPPLDPEKVKELQRFITLSKRLLVMTGAGISTESGIPDYRSEKVGLYARTDRRPIQHGDFVRSAPIRQRYWARNFVGWPQFSSHQPNPAHWALSTWEKLGKLYWLVTQNVDALHTKAGSRRLTELHGCMDRVLCLDCGEQTPRGVLQERFQVLNPTWSAEAHGLAPDGDVFLSEEQVRSFQVPTCVQCGGHLKPDVVFFGDTVNPDKVDFVHKRVKEADSLLVVGSSLQVYSGYRFILTAWEKKLPIAILNIGPTRSDDLACLKLNSRCGELLPLIDPC
notes: Overexpressed in 293T cells from phSirt4FLAG; Used in cell lysate or immunoprecipitated and eluted with FLAG peptide; also called hSirt4-FLAG; Sirt4-FLAG; not shown: C-terminal FLAG tag from vector pCMV-FLAG-4A
binding result: binds
